The source of these data is paper PMC4589357, “The Role of Electrostatic Interactions in Binding of Histone H3K4me2/3 to the Sgf29 Tandem Tudor Domain” (PLoS ONE, 2015).

Common to all, as to assay: ITC; peptide (generally 1.2 mM) titrated to protein (100 uM); for variants of low affinity 2.4 mM peptide to 200 uM protein; 25 mM TRIS pH 8.0, 50 mM NaCl, 1 mM DTT; one-site model
Holding throughout (conditions): both partners purified

For assay [1], the target named is T1, Sgf29 D266E variant, residues 115-293 (human, UniProt Q96ES7 115-293, D266E).
T1 construct: source: E. coli Rosetta BL21 DE3 PlysS, purified (Ni-NTA, TEV cleavage, SEC Superdex 75)
T1 sequence (looked up): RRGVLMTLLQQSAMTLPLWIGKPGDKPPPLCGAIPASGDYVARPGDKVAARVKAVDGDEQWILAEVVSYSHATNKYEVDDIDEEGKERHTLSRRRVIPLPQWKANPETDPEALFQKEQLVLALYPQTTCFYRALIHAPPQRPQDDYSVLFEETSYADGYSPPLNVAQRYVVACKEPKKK

For assay [2], the target named is T2, Sgf29 D266N variant, residues 115-293 (human, UniProt Q96ES7 115-293, D266N).
T2 construct: source: E. coli Rosetta BL21 DE3 PlysS, purified (Ni-NTA, TEV cleavage, SEC Superdex 75)
T2 sequence (looked up): T1 sequence (looked up) with E152N

For assay [3], the target named is T3, Sgf29 Y238F variant, residues 115-293 (human, UniProt Q96ES7 115-293, Y238F).
T3 construct: source: E. coli Rosetta BL21 DE3 PlysS, purified (Ni-NTA, TEV cleavage, SEC Superdex 75)
T3 sequence (looked up): T1 sequence (looked up) with Y124F, E152D

The target in assay [4] is T4, Sgf29 D266A variant, residues 115-293 (human, UniProt Q96ES7 115-293, D266A).
T4 construct: source: E. coli Rosetta BL21 DE3 PlysS, purified (Ni-NTA, TEV cleavage, SEC Superdex 75)
T4 sequence (looked up): T1 sequence (looked up) with E152A

The target in assay [5] is T5, Sgf29 D266W variant, residues 115-293 (human, UniProt Q96ES7 115-293, D266W).
T5 construct: source: E. coli Rosetta BL21 DE3 PlysS, purified (Ni-NTA, TEV cleavage, SEC Superdex 75)
T5 sequence (looked up): T1 sequence (looked up) with E152W

Assay [6] deals with T6, Sgf29 D266Y variant, residues 115-293 (human, UniProt Q96ES7 115-293, D266Y).
T6 construct: source: E. coli Rosetta BL21 DE3 PlysS, purified (Ni-NTA, TEV cleavage, SEC Superdex 75)
T6 sequence (looked up): T1 sequence (looked up) with E152Y

For assay [7], the target named is T7, Sgf29 D266F variant, residues 115-293 (human, UniProt Q96ES7 115-293, D266F).
T7 construct: source: E. coli Rosetta BL21 DE3 PlysS, purified (Ni-NTA, TEV cleavage, SEC Superdex 75)
T7 sequence (looked up): T1 sequence (looked up) with E152F

Assay [8] has as its target T8, Sgf29 Y245F variant, residues 115-293 (human, UniProt Q96ES7 115-293, Y245F).
T8 construct: source: E. coli Rosetta BL21 DE3 PlysS, purified (Ni-NTA, TEV cleavage, SEC Superdex 75)
T8 sequence (looked up): T1 sequence (looked up) with Y131F, E152D

Assay [9] addresses T9, Wild-type Sgf29 (SAGA-associated Factor 29) tandem tudor domain, residues 115-293 (human, UniProt Q96ES7 115-293).
T9 construct: also called WT Sgf29; WT; source: E. coli Rosetta BL21 DE3 PlysS, purified (Ni-NTA, TEV cleavage, SEC Superdex 75)
T9 sequence (looked up): T1 sequence (looked up) with E152D

As a reminder, the Kd is the constant that tells how readily two partners part at equilibrium.

Residue numbers refer to the chain shown, from its start. No end group written: not given here. Me3 = trimethyl (on lysine, trimethyllysine)

B1: 10-mer histone 3 peptide H3K4me3 (ARTKme3QTARKS) (peptide)
peptide: ARTK(Me3)QTARKS-OH
notes: histone H3 N-terminal tail, 10-mer, K4 trimethylated; also called native 10-mer peptide; source: synthetic peptide (manual Fmoc solid-phase synthesis, preparative HPLC)
In the case of B1, the Kd in assay [1] is 3.9 µM; in assay [2] it was 25 µM; in assay [3] it was 3.5 µM; in [4], 25 µM; in [5] it was greater than 200 µM; in [6], 28 µM. Also, the Kd was 44 µM in [7], 14 µM in [8] and 3.1 µM in [9]. In addition, the dH in assay [1] was -9 kcal/mol; in [2], -6.2 kcal/mol; in assay [3], -8.1 kcal/mol; in assay [4] it was -6.4 kcal/mol; in [6], -4.8 kcal/mol; in [7], -3.4 kcal/mol. The figures for the dH in [8] and in assay [9] were -5.9 kcal/mol and -8.1 kcal/mol, respectively.
